Results from patent US20200239556A1 (BIOVERATIV USA, published 2020).

Columns and labels:
[1] = target: T1, human Factor Bb (human, UniProt P00751 260-764); test: direct ELISA screen of hybridoma clones on fBb
T1 construct: The protein in the assay was purified human Factor Bb; also called fBb

[2] = target: T2, full length human Complement Factor B (human, UniProt P00751 26-764); test: ELISA, antigen coated on the plate, HRP goat anti-mouse detection
T2 construct: also called fB; FB
T2 sequence (P00751 26-764 limits assumed): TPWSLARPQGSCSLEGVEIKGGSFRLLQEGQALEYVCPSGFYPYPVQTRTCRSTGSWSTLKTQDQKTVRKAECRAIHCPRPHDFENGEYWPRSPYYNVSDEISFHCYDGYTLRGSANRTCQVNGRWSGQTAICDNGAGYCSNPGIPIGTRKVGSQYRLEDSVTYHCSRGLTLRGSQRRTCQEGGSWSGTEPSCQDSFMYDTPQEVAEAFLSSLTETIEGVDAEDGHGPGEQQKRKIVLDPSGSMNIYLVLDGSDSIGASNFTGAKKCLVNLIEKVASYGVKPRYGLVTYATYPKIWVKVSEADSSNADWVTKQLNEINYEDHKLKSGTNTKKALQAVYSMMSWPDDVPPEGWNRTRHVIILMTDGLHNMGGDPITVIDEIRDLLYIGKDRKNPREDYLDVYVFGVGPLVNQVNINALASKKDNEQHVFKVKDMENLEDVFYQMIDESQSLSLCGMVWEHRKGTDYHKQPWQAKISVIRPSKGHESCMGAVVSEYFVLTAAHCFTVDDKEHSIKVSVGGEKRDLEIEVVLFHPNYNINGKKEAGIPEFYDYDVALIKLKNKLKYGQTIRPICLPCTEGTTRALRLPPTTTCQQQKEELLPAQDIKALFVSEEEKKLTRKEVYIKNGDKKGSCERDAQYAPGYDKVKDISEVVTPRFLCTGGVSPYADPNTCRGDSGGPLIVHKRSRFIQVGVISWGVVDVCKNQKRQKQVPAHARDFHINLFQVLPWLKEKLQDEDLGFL

T1 sequence (P00751 260-764 limits assumed): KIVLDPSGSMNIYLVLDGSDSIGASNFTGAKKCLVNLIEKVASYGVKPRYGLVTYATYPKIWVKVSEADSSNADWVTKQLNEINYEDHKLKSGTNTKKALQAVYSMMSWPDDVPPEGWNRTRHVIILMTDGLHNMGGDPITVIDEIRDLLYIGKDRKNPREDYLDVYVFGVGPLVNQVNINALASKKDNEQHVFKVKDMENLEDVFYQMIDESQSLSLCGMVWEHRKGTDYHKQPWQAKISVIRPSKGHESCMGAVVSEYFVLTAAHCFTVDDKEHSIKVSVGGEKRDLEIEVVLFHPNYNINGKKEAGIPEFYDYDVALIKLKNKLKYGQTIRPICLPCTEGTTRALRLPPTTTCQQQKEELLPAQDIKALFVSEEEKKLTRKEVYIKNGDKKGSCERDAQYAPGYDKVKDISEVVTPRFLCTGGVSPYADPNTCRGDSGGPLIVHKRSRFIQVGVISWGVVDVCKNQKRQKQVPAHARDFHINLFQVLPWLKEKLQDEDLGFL

- binding result [1]: binds
- binding result [2]: binds
B1: anti-Factor B Ab (antibody, V domains shown)
VH: EVQLQQSGPELVKPGASVKMSCKASGYSFTDYLMNWVKQSHGKSLEWIGRINPYNGDAFYNQRFKGKATLTVDKSSSTAHMELRSLTSEDSALYYCARLENDYGFTYWGQGTLVTVSA
VL: DIVMTQAAFSNPVTLGTSASISCSSSKSLLHSNGITYLYWYLQRPGQSPQLLIYRMSNLASGVPDRFSGSGSGTDFTLRISRVEAEDVGVYYCAQMLERPWTFGGGTKLEIK
notes: Mouse monoclonal antibody purified from hybridoma supernatant (NZBW mice immunised with fBb); also called FBb Ab; anti-Factor B antibody
